Laboratory results reported in PMC11331095, “Structural basis for DNA recognition by a viral genome-packaging machine”.
Positions count from the first letter of the chain named.

Legend:
[1] = molecular target: HK97 small terminase (Escherichia coli bacteriophage HK97); assay: cryo-EM structure; small terminase with 31 bp DNA (cos 7-37), 1:2 protein:DNA, 25 mM Tris-HCl pH 7.5, 200 mM NaCl, 10 mM MgCl2; complex purified on S200 10/30; 3.0 Å
[2] = molecular target: HK97 small terminase triple mutant (Lys4, Arg5 and Arg7 to alanine) (Escherichia coli bacteriophage HK97); assay: SEC; mutant proteins on a Superdex S200 10/30 column in 25 mM Tris-HCl, pH 7.5, 1 M NaCl (SI Appendix, Fig. S12)
[3] = molecular target: HK97 small terminase Lys100 to alanine mutant (Escherichia coli bacteriophage HK97); assay: as above
[4] = molecular target: HK97 small terminase Lys4 to alanine mutant (Escherichia coli bacteriophage HK97); assay: as above
[5] = molecular target: HK97 small terminase Arg7 to alanine mutant (Escherichia coli bacteriophage HK97); assay: as above
[6] = molecular target: HK97 small terminase Arg114 to alanine mutant (Escherichia coli bacteriophage HK97); assay: as above
small terminase WT [7] = molecular target: T1, small terminase WT (Escherichia coli bacteriophage HK97, UniProt Q9MBW4 1-161); assay: MST; conditions: rough upper limit of Kapp; mixed specific and nonspecific binding; 10 mM MgCl2; EMSA: 25 mM Tris-HCl pH 7.5, 200 mM NaCl, 10 mM MgCl2, RT 2-3 h, gel at 4 C (DNA 2 uM boundary mapping, 0.5 uM DNA mutants, 20 nM Alexa647 or 40 nM Cy5 DNA) …
T1 sequence: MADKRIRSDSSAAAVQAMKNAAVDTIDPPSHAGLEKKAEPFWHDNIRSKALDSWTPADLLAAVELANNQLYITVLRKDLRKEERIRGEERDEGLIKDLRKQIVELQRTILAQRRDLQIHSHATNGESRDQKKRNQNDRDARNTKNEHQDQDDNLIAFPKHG

[8] = molecular target: HK97 small terminase Arg128 to alanine mutant (Escherichia coli bacteriophage HK97); assay: SEC; mutant proteins on a Superdex S200 10/30 column in 25 mM Tris-HCl, pH 7.5, 1 M NaCl (SI Appendix, Fig. S12)
[9] = molecular target: HK97 small terminase Arg5 to alanine mutant (Escherichia coli bacteriophage HK97); assay: as above
[10] = molecular target: HK97 small terminase Arg107 to alanine mutant (Escherichia coli bacteriophage HK97); assay: as above
small terminase WT [11] = molecular target: T1, small terminase WT; assay: cryoEM; 3.0 A; 28 of 31 bp modelled; DNA threaded through channel; EMSA: 25 mM Tris-HCl pH 7.5, 200 mM NaCl, 10 mM MgCl2, RT 2-3 h, gel at 4 C (DNA 2 uM boundary mapping, 0.5 uM DNA mutants, 20 nM Alexa647 or 40 nM Cy5 DNA); MST: same buffer + 0.005-0.01% Tween 20, 12 nM DNA, 20 C; conditions: protein: recombinant; tags: His-SUMO tag removed; chain copies: 9
small terminase WT [12] = molecular target: T1, small terminase WT; assay: EMSA; EMSA: 25 mM Tris-HCl pH 7.5, 200 mM NaCl, 10 mM MgCl2, RT 2-3 h, gel at 4 C (DNA 2 uM boundary mapping, 0.5 uM DNA mutants, 20 nM Alexa647 or 40 nM Cy5 DNA); MST: same buffer + 0.005-0.01% Tween 20, 12 nM DNA, 20 C; conditions: protein: recombinant; tags: His-SUMO tag removed; chain copies: 9
small terminase WT [13] = molecular target: T1, small terminase WT; assay: EMSA; up to 1 uM protein; EMSA: 25 mM Tris-HCl pH 7.5, 200 mM NaCl, 10 mM MgCl2, RT 2-3 h, gel at 4 C (DNA 2 uM boundary mapping, 0.5 uM DNA mutants, 20 nM Alexa647 or 40 nM Cy5 DNA); MST: same buffer + 0.005-0.01% Tween 20, 12 nM DNA, 20 C; conditions: protein: recombinant; tags: His-SUMO tag removed; chain copies: 9
small terminase WT [14] = molecular target: T1, small terminase WT; assay: EMSA; little influence on binding; EMSA: 25 mM Tris-HCl pH 7.5, 200 mM NaCl, 10 mM MgCl2, RT 2-3 h, gel at 4 C (DNA 2 uM boundary mapping, 0.5 uM DNA mutants, 20 nM Alexa647 or 40 nM Cy5 DNA); MST: same buffer + 0.005-0.01% Tween 20, 12 nM DNA, 20 C; conditions: protein: recombinant; tags: His-SUMO tag removed; chain copies: 9
small terminase WT [15] = molecular target: T1, small terminase WT; assay: EMSA; binding abolished; up to 1 uM protein; EMSA: 25 mM Tris-HCl pH 7.5, 200 mM NaCl, 10 mM MgCl2, RT 2-3 h, gel at 4 C (DNA 2 uM boundary mapping, 0.5 uM DNA mutants, 20 nM Alexa647 or 40 nM Cy5 DNA); MST: same buffer + 0.005-0.01% Tween 20, 12 nM DNA, 20 C; conditions: protein: recombinant; tags: His-SUMO tag removed; chain copies: 9

## HK97 small terminase
[1]
  stoichiometry N: 9

## HK97 small terminase triple mutant (Lys4, Arg5 and Arg7 to alanine) (natural protein)
[2]
  stoichiometry N: 9

## HK97 small terminase Lys100 to alanine mutant (natural protein)
[3]
  stoichiometry N: 9

## HK97 small terminase Lys4 to alanine mutant (natural protein)
[4]
  stoichiometry N: 9

## HK97 small terminase Arg7 to alanine mutant (natural protein)
[5]
  stoichiometry N: 9

## HK97 small terminase Arg114 to alanine mutant (natural protein)
[6]
  stoichiometry N: 9

## cos -20-80 (100 bp)
Small terminase WT [7]
  Kd: < 100 nM

## HK97 small terminase Arg128 to alanine mutant (natural protein)
[8]
  stoichiometry N: 9

## HK97 small terminase Arg5 to alanine mutant (natural protein)
[9]
  stoichiometry N: 9

## HK97 small terminase Arg107 to alanine mutant (natural protein)
[10]
  stoichiometry N: 9

B1: cos 7-37 (31 bp) (dsDNA)
DNA 1: ATTTAACGCTAACCCGATTTTTTTAGTTTTA
DNA 2: TAAAACTAAAAAAATCGGGTTAGCGTTAAAT
Small terminase WT [11]
  binding result: binds

B2: 25 bp cos oligo (dsDNA)
DNA 1: TAACGCTAACCCGATTTTTTTAGTT
DNA 2: AACTAAAAAAATCGGGTTAGCGTTA
Small terminase WT [12]
  binding result: binds

B3: 21 bp cos oligo (dsDNA)
DNA 1: ACGCTAACCCGATTTTTTTAG
DNA 2: CTAAAAAAATCGGGTTAGCGT
Small terminase WT [12]
  binding result: binds

B4: position 21 C:G to T:A (dsDNA)
DNA 1: B1 DNA 1 with C15T
DNA 2: B1 DNA 2 with G17A
Small terminase WT [13]
  binding result: no binding

B5: positions 24-29 A:T swapped (dsDNA)
DNA 1: ATTTAACGCTAACCCGAAAAAAATAGTTTTA
DNA 2: TAAAACTATTTTTTTCGGGTTAGCGTTAAAT
Small terminase WT [14]
  binding result: binds

B6: positions 26-27 G:C (dsDNA)
DNA 1: B1 DNA 1 with T20C, T21C
DNA 2: B1 DNA 2 with A11G, A12G
Small terminase WT [15]
  binding result: no binding
